Reference: US20110263454A1, “Methods of Identifying Functional Characteristics of Promoters, Transcription Modifying Proteins and Transcription Modulating Agents” (Salk Institute for Biological Studies, priority 2008, published 2011)

Tests used:
hPPARg1 promoter = test: NHR-promoter luciferase screen, hPPARg1 promoter; type: cell-based, human
Method in brief: (§1)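 CV-1 cells were co-transfected with 50 ng NHR (homodimer or NHR/RXR heterodimer), 100 ng promoter-luciferase construct and 50 ng LacZ. Luciferase was normalized to LacZ and to a no-NHR/no-ligand control.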

hPPARg2 promoter = test: NHR-promoter luciferase screen, hPPARg2 promoter; type: cell-based, human
Method in brief: as §1

mLeptin promoter = test: NHR-promoter luciferase screen, mLeptin promoter; type: cell-based, mouse
Method in brief: as §1

mNPY promoter = test: NHR-promoter luciferase screen, mNPY promoter; type: cell-based, mouse
Method in brief: as §1

mPer1 promoter = test: NHR-promoter luciferase screen, mPer1 promoter; type: cell-based, mouse
Method in brief: as §1

[1] = Table 6d, luciferase activity relative to control (control = 1.00)

B1: SHP: Small Heterodimer Partner (NR0B2), cDNA driver (protein, UniProt Q15466 1-257, looked up)
Nuclear receptor subfamily 0 …: MSTSQPGACPCQGAASRPAILYALLSSSLKAVPRPRSRCLCRQHRPVQLCAPHRTCREALDVLAKTVAFLRNLPSFWQLPPQDQRRLLQGCWGPLFLLGLAQDAVTFEVAEAPVPSILKKILLEEPSSSGGSGQLPDRPQPSLAAVQWLQCCLESFWSLELSPKEYACLKGTILFNPDVPGLQAASHIGHLQQEAHWVLCEVLEPWCPAAQGRLTRVLLTASTLKSIPTSLLGDLFFRPIIGDVDIAGLLGDMLLLR
Luc. act., normalized to lacZ (hPPARg1 promoter; PPARG1 promoter, hormone receptor with or without its ligand): 67.9 | Normalized Luc. act., normalized to control (hPPARg1 promoter; PPARG1 promoter, hormone receptor with or without its ligand, relative to control): 1.0 | Results of assays of transcription factor (+/- ligand) with hPPARg1 (hPPARg1 promoter; [1]): 0.99 | Luc. act., normalized to lacZ (hPPARg2 promoter; PPARG2 promoter, hormone receptor with or without its ligand): 1.9 | Normalized Luc. act., normalized to control (hPPARg2 promoter; PPARG2 promoter, hormone receptor with or without its ligand, relative to control): 0.9 | Results of assays of transcription factor (+/- ligand) with hPPARg2 (hPPARg2 promoter; [1]): 0.93 | Luc. act., normalized to lacZ (mLeptin promoter; Table 7, mLeptin): 2.7 | Normalized Luc. act., normalized to control (mLeptin promoter; Table 7, mLeptin): 0.9 | Results of assays of transcription factor (+/- ligand) with mLeptin (mLeptin promoter; [1]): 0.91 | Results of assays of transcription factor (+/- ligand) with mNPY (mNPY promoter; [1]): 0.81 | Luc. act., normalized to lacZ (mNPY promoter; mNPY promoter, HR component with or without ligand): 68.3 | Normalized Luc. act., normalized to control (mNPY promoter; mNPY promoter, HR component with or without ligand, relative to control): 0.8 | Luc. act., normalized to lacZ (mPer1 promoter; Per1 promoter reporter, co-transfected HR, with or without its ligand): 130.3 | Normalized Luc. act., normalized to control (mPer1 promoter; Per1 promoter reporter, co-transfected HR, with or without its ligand, relative to control): 0.9 | luciferase activity normalized to lacZ activity and to a control, mPer1 (mPer1 promoter; mPer1 promoter-luciferase, CV-1 cells, NHR +/- ligand, control = 1.00): 0.90
